Measured values as given in patent US20240124528A1 (ACADEMIA SINICA, published 2024).
Changes are numbered by the printed parent chain. Names and notes keep the numbering of the source.

T1: HA-TRIM56 (TRIM56-HA, HA-tagged tripartite-motif 56) (UniProt Q9BRZ2 1-755)
T1 construct: also called HA-tagged TRIM56; HA-TIM56; not shown: HA tag of the C-HA vector
T1 sequence (looked up): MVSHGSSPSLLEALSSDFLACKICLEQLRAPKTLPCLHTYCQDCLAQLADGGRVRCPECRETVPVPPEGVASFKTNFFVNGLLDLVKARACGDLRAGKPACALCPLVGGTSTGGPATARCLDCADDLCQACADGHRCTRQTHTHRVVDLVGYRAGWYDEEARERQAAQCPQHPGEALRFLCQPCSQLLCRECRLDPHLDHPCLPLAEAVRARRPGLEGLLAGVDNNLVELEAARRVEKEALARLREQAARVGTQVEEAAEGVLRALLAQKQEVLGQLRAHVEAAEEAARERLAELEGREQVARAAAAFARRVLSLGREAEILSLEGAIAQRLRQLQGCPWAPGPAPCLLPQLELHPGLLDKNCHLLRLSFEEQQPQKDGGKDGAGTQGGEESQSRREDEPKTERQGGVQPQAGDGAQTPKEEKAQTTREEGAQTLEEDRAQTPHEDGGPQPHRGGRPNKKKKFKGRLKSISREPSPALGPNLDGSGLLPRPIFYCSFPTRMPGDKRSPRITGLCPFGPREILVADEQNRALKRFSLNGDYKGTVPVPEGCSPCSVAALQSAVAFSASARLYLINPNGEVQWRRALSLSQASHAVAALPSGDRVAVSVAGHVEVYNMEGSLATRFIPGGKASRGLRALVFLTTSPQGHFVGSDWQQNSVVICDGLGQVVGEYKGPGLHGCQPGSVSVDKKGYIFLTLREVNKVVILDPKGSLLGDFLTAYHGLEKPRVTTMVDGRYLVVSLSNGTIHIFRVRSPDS

T2: TRIM56 (tripartite-motif 56), endogenous (human, UniProt Q9BRZ2 1-755)
T2 construct: also called ubiquitin E3 ligase TRIM56
T2 sequence (looked up): T1 sequence (looked up)

B1: IL-17RB ΔK470˜Q484 (Del-7), Flag-tagged (receptor)
chain: REPTVQCGSETGPSPEWMLQHDLIPGDLRDLRVEPVTTSVATGDYSILMNVSWVLRADASIRLLKATKICVTGKSNFQSYSCVRCNYTEAFQTQTRPSGGKWTFSYIGFPVELNTVYFIGAHNIPNANMNEDGPSMSVNFTSPGCLDHIMKYKKKCVKAGSLWDPNITACKKNEETVEVNFTTTPLGNRYMALIQHSTIIGFSQVFEPHQKKQTRASVVIPVTGDSEGATVQLTPYFPTCGSDCIRHKGTVVLCPQTGVPFPLDNNKSKPGGWLPLLLLSLLVATWVLVAGIYLMWRHERIKKTSFSTTTLLPPIKVLVVYPSEICFHHTICYFTEFLQNHCRSEVILEKWQKKKIAEMGPVQWLATQKKAADKVVFLLSNDVNSVCDGTCGKSEGSPSENSQDLFPLAFNLFCSDLRSQIHLHKYVVVYFREIDTKDDYNALSVCPKYHLMQVSAGKRSQACHDGCCSL
notes: not shown: Flag tag
B2: IL-17RB ΔN458˜V462 (Del-6), Flag-tagged (receptor)
chain: REPTVQCGSETGPSPEWMLQHDLIPGDLRDLRVEPVTTSVATGDYSILMNVSWVLRADASIRLLKATKICVTGKSNFQSYSCVRCNYTEAFQTQTRPSGGKWTFSYIGFPVELNTVYFIGAHNIPNANMNEDGPSMSVNFTSPGCLDHIMKYKKKCVKAGSLWDPNITACKKNEETVEVNFTTTPLGNRYMALIQHSTIIGFSQVFEPHQKKQTRASVVIPVTGDSEGATVQLTPYFPTCGSDCIRHKGTVVLCPQTGVPFPLDNNKSKPGGWLPLLLLSLLVATWVLVAGIYLMWRHERIKKTSFSTTTLLPPIKVLVVYPSEICFHHTICYFTEFLQNHCRSEVILEKWQKKKIAEMGPVQWLATQKKAADKVVFLLSNDVNSVCDGTCGKSEGSPSENSQDLFPLAFNLFCSDLRSQIHLHKYVVVYFREIDTKDDYCPKYHLMKDATAFCAELLHVKQQVSAGKRSQACHDGCCSL
notes: also called Del-6 (ΔN458-V462) IL-17RB; not shown: Flag tag
B3: IL-17RB-Flag (Flag-tagged IL-17RB, wild type) (receptor)
chain: REPTVQCGSETGPSPEWMLQHDLIPGDLRDLRVEPVTTSVATGDYSILMNVSWVLRADASIRLLKATKICVTGKSNFQSYSCVRCNYTEAFQTQTRPSGGKWTFSYIGFPVELNTVYFIGAHNIPNANMNEDGPSMSVNFTSPGCLDHIMKYKKKCVKAGSLWDPNITACKKNEETVEVNFTTTPLGNRYMALIQHSTIIGFSQVFEPHQKKQTRASVVIPVTGDSEGATVQLTPYFPTCGSDCIRHKGTVVLCPQTGVPFPLDNNKSKPGGWLPLLLLSLLVATWVLVAGIYLMWRHERIKKTSFSTTTLLPPIKVLVVYPSEICFHHTICYFTEFLQNHCRSEVILEKWQKKKIAEMGPVQWLATQKKAADKVVFLLSNDVNSVCDGTCGKSEGSPSENSQDLFPLAFNLFCSDLRSQIHLHKYVVVYFREIDTKDDYNALSVCPKYHLMKDATAFCAELLHVKQQVSAGKRSQACHDGCCSL
notes: The construct as expressed; also called Flag-IL-17RB; Flag-tagged WT IL-17RB; not shown: Flag tag
B4: IL-17RB-HA (C-terminally HA-tagged full-length IL-17RB, wild type) (receptor)
chain: B3 chain
notes: Full-length IL-17RB subcloned into pcDNA3.1, expressed in 293T, IL-17RB-KO BxPC3 or SU.86.86 cells; also called HA-IL-17RB; HA-tagged WT IL-17RB; not shown: HA tag, C-terminal
B5: IL-17RB Y447F, Flag-tagged (receptor)
chain: B3 chain with Y430F
notes: also called Y447F mutant of IL-17RB; not shown: Flag tag
B6: interleukin-17 receptor B (IL-17RB), human, endogenous in pancreatic cancer cells (receptor)
chain: B3 chain
notes: Endogenous receptor of CFPAC1 / BxPC3 cells, precipitated from lysates or stained in situ; also called interleukin-17B receptor
B7: IL-17RB ΔV403˜S416 (Del-3), Flag-tagged (receptor)
chain: REPTVQCGSETGPSPEWMLQHDLIPGDLRDLRVEPVTTSVATGDYSILMNVSWVLRADASIRLLKATKICVTGKSNFQSYSCVRCNYTEAFQTQTRPSGGKWTFSYIGFPVELNTVYFIGAHNIPNANMNEDGPSMSVNFTSPGCLDHIMKYKKKCVKAGSLWDPNITACKKNEETVEVNFTTTPLGNRYMALIQHSTIIGFSQVFEPHQKKQTRASVVIPVTGDSEGATVQLTPYFPTCGSDCIRHKGTVVLCPQTGVPFPLDNNKSKPGGWLPLLLLSLLVATWVLVAGIYLMWRHERIKKTSFSTTTLLPPIKVLVVYPSEICFHHTICYFTEFLQNHCRSEVILEKWQKKKIAEMGPVQWLATQKKAADKVVFLLSNDVNSENSQDLFPLAFNLFCSDLRSQIHLHKYVVVYFREIDTKDDYNALSVCPKYHLMKDATAFCAELLHVKQQVSAGKRSQACHDGCCSL
notes: not shown: Flag tag

What was measured:
[1] = biological target: T1, HA-TRIM56 (TRIM56-HA, HA-tagged …); experiment: reciprocal co-IP, 293T cells, rIL-17B (FIG. 6D)
[2] = biological target: T2, TRIM56 (tripartite-motif 56), endogenous; experiment: co-IP with anti-Flag beads (FIG. 17F)
[3] = biological target: B4; experiment: co-IP with anti-HA beads, 293T cells, rIL-17B (FIG. 4B)
Procedure: The same cells as (FIG. 4C) were lysed and the whole cell lysates were directly immunoblotted with the indicated antibodies.
(§1) For reciprocal co-IP, the whole-cell extract was incubated with anti-Flag M2 agarose (A2220, Sigma-Aldrich) or anti-HA (HA-7) agarose (A2095, Sigma-Aldrich) at 4° C. for 2 hrs with gentle agitation. […] Bradford assay (Bio-Rad) was used for determining protein concentration.

[4] = biological target: B3; experiment: Duolink in situ interaction assay with anti-HA and anti-Flag, IL-17RB-KO BxPC3 cells (FIG. 4C, FIG. 13D)
Source text: DuoLink proximity ligation assay (PLA) Kit (DuoLink, DU092101, Sigma-Aldrich) was used to detect protein—protein interaction using fluorescence microscopy as in the manufacturer's protocol.

[5] = biological target: T1, HA-TRIM56 (TRIM56-HA, HA-tagged …); experiment: co-IP in 293T cells (FIG. 6B) and native-PAGE of mixed purified proteins (FIG. 17A)
[6] = biological target: B4; experiment: co-IP with anti-HA beads, IL-17RB-KO BxPC3 cells, 50 ng/ml rIL-17B (FIG. 14B)
Procedure: as §1

[7] = biological target: the molecule itself; experiment: Duolink in situ interaction assay with anti-IL-17RB (D9), CFPAC1 cells, 50 ng/ml rIL-17B (FIG. 4D)
Procedure: DuoLink proximity ligation assay (PLA) Kit (DuoLink, DU092101, Sigma-Aldrich) was used to detect protein—protein interaction using fluorescence microscopy as in the manufacturer's protocol. […] The cells were then incubated with primary antibodies diluted in DuoLink antibody diluents for 1 hr. […] After that, the cells were washed and further incubated for 1 hrs at 37° C. with species-specific secondary antibody carrying PLA probes for hybridization, which was facilitated in close proximity (<16 nm) in the presence of two complementary oligonucleotides. After annealing and rolling-circle amplification, a detection solution consisting of fluorescently labeled oligonucleotides was added, and the slides were mounted with Fluoroshield with DAPI (GeneTex). The signal was detected as distinct fluorescent dots in the Texas red channel. Microscopy images were acquired by confocal spectral microscopy (Leica SP2/SP8X) and analyzed by LAS AF software (Leica Biosystems). Negative controls consisted of samples treated as described above but with secondary antibodies alone.

Binder: B1
binding result [1]: no binding

Binder: B2
binding result [2]: no binding (tested: 50 ng/ml rIL-17B)
binding result [1]: no binding

Binder: B3
binding result [3]: binds

Binder: B4
binding result [4]: binds

Binder: B5
binding result [5]: no binding
binding result [6]: binds

Binder: B6
binding result [7]: binds

Binder: B7
binding result [1]: no binding
